In patent US6413935 one finds IC50 data, which are given here for twelve molecules.

The target of assay [1] is HLA-DR1 (DRB1*0101), purified from LG2 cells (human). In words: 125I-peptide inhibition, purified class II.
The target of assay [2] is T1, HLA-DR4w4 (DRB1*0401), purified from PREISS cells (human).
T1 chain 1: not shown
T1 chain 2: not shown
The experiment in a line: 125I-peptide inhibition, purified class II.

Assay [3] deals with T2, HLA-DR7 (DRB1*0701), purified from PITOUT cells (human).
T2 chain 1: not shown
T2 chain 2: not shown
In words: 125I-peptide inhibition, purified class II.

For assay [4], the target named is T3, HLA-DRw53 (DRB4*0101), purified from L257.6 transfected fibroblasts (human).
T3 chain 1: not shown
T3 chain 2: not shown
The experiment in a line: 125I-peptide inhibition, purified class II.

For assay [5], the target named is T4, mouse class II IA^k, purified from CH12 cells (mouse), P01910.
T4 chain 1: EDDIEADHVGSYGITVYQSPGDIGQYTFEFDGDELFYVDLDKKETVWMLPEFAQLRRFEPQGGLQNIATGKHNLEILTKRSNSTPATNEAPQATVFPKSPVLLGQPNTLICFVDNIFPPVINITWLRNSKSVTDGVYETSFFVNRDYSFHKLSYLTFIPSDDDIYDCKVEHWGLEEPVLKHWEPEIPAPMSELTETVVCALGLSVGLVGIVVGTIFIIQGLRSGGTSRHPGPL
T4 chain 2: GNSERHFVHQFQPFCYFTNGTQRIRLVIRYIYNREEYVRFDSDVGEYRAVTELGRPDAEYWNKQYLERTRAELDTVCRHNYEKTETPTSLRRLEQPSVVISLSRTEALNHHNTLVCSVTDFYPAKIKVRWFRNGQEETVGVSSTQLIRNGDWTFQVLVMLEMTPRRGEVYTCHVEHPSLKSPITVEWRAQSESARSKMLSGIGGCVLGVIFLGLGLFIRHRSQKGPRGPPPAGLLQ
The experiment in a line: 125I-peptide inhibition, purified class II.

Assay [6] has as its target mouse class II IA^s, purified from LS102.9 cells (mouse). In words: 125I-peptide inhibition, purified class II.
For assay [7], the target named is mouse class II IE^k, purified from CH12 cells (mouse). The experiment in a line: 125I-peptide inhibition, purified class II.
Assay [8] concerns the target T5, HLA-DR2w2a (DRB5*0101), purified from L416.3 transfected fibroblasts (human).
T5 chain 1: not shown
T5 chain 2: not shown
The experiment in a line: 125I-peptide inhibition, purified class II.

In assay [9] the target is T6, HLA-DR2w2b (DRB1*1501), purified from 3107 cells (human).
T6 chain 1: not shown
T6 chain 2: not shown
In words: 125I-peptide inhibition, purified class II.

Assay [10] concerns the target T7, HLA-DR3 (DRB1*0301), purified from MAT cells (human).
T7 chain 1: not shown
T7 chain 2: not shown
The experiment in a line: 125I-peptide inhibition, purified class II.

The target of assay [11] is T8, HLA-DR52a (DRB3*0101), purified from MAT cells or TR81.19 transfected fibroblasts (human).
T8 chain 1: not shown
T8 chain 2: not shown
The experiment in a line: 125I-peptide inhibition, purified class II.

Assay [12] has as its target T9, mouse class II IA^b, purified from DB27.4 cells (mouse), P14434.
T9 chain 1: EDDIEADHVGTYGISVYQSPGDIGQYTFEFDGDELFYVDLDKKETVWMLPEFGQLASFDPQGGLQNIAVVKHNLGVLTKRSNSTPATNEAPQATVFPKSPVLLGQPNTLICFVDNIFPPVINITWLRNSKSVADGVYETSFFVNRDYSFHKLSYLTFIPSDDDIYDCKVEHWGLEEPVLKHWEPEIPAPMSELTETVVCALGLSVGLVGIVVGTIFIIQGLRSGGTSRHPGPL
T9 chain 2: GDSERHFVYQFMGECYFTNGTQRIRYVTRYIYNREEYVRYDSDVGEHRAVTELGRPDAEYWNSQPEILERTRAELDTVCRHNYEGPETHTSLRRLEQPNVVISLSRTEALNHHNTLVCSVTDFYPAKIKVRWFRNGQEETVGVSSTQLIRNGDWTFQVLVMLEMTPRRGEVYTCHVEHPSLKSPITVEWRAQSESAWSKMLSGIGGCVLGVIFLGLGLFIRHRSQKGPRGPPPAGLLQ
In words: 125I-peptide inhibition, purified class II.

Assay [13] addresses T10, mouse class II IA^d, purified from A20 cells (mouse), P04228.
T10 chain 1: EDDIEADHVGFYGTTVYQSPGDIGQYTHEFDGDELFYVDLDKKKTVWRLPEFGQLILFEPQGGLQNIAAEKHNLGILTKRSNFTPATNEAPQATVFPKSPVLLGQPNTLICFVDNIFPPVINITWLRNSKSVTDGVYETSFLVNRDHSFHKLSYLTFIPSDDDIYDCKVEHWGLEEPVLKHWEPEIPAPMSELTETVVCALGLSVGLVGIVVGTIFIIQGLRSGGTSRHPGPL
T10 chain 2: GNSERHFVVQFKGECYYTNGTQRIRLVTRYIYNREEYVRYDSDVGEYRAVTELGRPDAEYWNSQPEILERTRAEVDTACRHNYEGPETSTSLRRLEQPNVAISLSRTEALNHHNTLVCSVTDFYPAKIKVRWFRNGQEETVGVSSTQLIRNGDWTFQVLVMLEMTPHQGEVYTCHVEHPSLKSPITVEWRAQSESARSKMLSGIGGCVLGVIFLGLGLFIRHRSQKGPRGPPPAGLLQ
In words: 125I-peptide inhibition, purified class II.

Assay [14] addresses mouse class II IE^d, purified from A20 cells (mouse). In words: 125I-peptide inhibition, purified class II.
For assay [15], the target named is T11, HLA-DR2w2a (DRB5*0101), purified from transfected fibroblasts L416.3 (human).
T11 chain 1: not shown
T11 chain 2: not shown
In words: competition vs 125I-peptide, purified class II MHC.

In assay [16] the target is T12, HLA-DR3 (DRB1*0301), purified from cell line MAT (human).
T12 chain 1: not shown
T12 chain 2: not shown
The experiment in a line: competition vs 125I-peptide, purified class II MHC.

For assay [17], the target named is T13, HLA-DR4w4 (DRB1*0401), purified from cell line PREISS (human).
T13 chain 1: not shown
T13 chain 2: not shown
In words: competition vs 125I-peptide, purified class II MHC.

Assay [18] has as its target T14, HLA-DR5 (DRB1*11011), purified from cell line SWEIG (human).
T14 chain 1: not shown
T14 chain 2: not shown
In words: competition vs 125I-peptide, purified class II MHC.

Assay [19] has as its target mouse class II IE^d, purified from A20 cells (mouse). In words: assay standard, average IC50.
Assay [20] addresses T4, mouse class II IA^k, purified from CH12 …. In words: assay standard, average IC50.
Assay [21] deals with T15, HLA-DR7 (DRB1*0701), purified from cell line PITOUT (human).
T15 chain 1: not shown
T15 chain 2: not shown
The experiment in a line: competition vs 125I-peptide, purified class II MHC.

Assay [22] addresses T16, HLA-DR5 (DRB1*11011), purified from SWEIG cells (human).
T16 chain 1: not shown
T16 chain 2: not shown
The experiment in a line: 125I-peptide inhibition, purified class II.

In assay [23] the target is T10, mouse class II IA^d, purified from A20 …. In words: assay standard, average IC50.

Non-standard residues stand in square brackets, D forms with d. No end group written: not given here. Cha = N[C@@H](CC1CCCCC1)C(=O)O; 14 = not defined here Some results are limits rather than exact numbers.

By IC50 is commonly meant the concentration that inhibits the measured activity by half. Regarding [dA]A[Cha]AAAATLKAA[dA] [760.57], the IC50 in assay [1] was 4.5 nM; in [2], 2 nM; in assay [3], 78 nM; in [4], 3300 nM; in assay [5] it was 5260 nM; in assay [6] it was 120 nM. For the same molecule, the IC50 in assay [7] was 78 nM.
For [dA]A[Cha]VAAATLKAA[dA] [906.09], the IC50 in assay [1] stood at 0.61 nM; in assay [8], 2 nM; in assay [9], 14 nM; in assay [10], 280 nM; in [2] it was 2.6 nM; in assay [11] it was 588 nM. Moreover, the IC50 in [3] amounted to 76 nM; in assay [4], 93 nM; in assay [12], 31 nM; in assay [13] it was 38 nM; in assay [14] it was 31 nM; in assay [7], 11 nM.
In the case of [dA]K[14]VAAHTLKAA[dA]-NH2 (reading uncertain; also: printed as aK(14)VAAHTLKAAa-NH2) [peptide 955.15 (as printed), aK(14)…a-NH2], the IC50 turned out to be 5.4 nM in [15], 2500 nM in assay [16], 3.2 nM in assay [17] and 29.9 nM in assay [18].
Take YLEDARRLKAIYEKKK (modifications not checked) [lambda rep 12-26]: the IC50 in [12] was over 10000 nM; in [13], 1100 nM; in assay [5] it was over 10000 nM; in assay [14] it was 170 nM; in [19], 170 nM.
On to YNTDGSTDYGILQINSR (modifications not checked) [HEL 46-61 (assay standard, with N-terminal Y)], for which the IC50 in assay [20] turned out to be 20 nM.
With [dA]K[14]VYAWTLKAA[dA]-NH2 (reading uncertain; also: printed as aK(14)VYAWTLKAAa-NH2) [peptide 965.052, aK(14)…a-NH2], the values for the IC50 in assay [17], in assay [18] and in assay [21] were 0.8 nM, 6.9 nM and 25.5 nM, respectively.
Take [dA]K[14]VKAWTLKAA[dA]-NH2 (reading uncertain; also: printed as aK(14)VKAWTLKAAa-NH2) [peptide 965.021, aK(14)…a-NH2]: the IC50 in assay [16] was 1100 nM; in assay [18], 4.1 nM; in assay [21], 89.3 nM.
Molecule HSLGKWLGHPDKF (modifications not checked) [PLP 139-151] returned an IC50 in [6] of 86 nM.
Take NTDGSTDYGILQINSR (modifications not checked) [HEL46-61]: the IC50 in [12] came out at 7000 nM; in assay [5] it was 20 nM; in assay [14], 8500 nM.
Regarding [dA]A[Cha]IAAATLKAA[dA] [906.11], the IC50 in assay [1] was 0.38 nM; in [8], 1.3 nM; in assay [10], 100 nM; in assay [22], 2.4 nM; in assay [3] it was 31 nM; in [4] it was 41 nM. The results for the IC50 in [6], in [14] and in assay [7] were 98 nM, 13 nM and 14 nM, respectively.
For ISQAVHAAHAEINE (modifications not checked) [Ova 323-336], the IC50 in assay [13] was found to be 110 nM; in assay [5] it was 1000 nM; in assay [7], 700 nM; in [23], 110 nM.
For [dA]K[14]VYAWTLKAA[dA]-NH2 (reading uncertain; also: printed as aK(14)VYAWTLKAAa-NH2) [peptide 965.051, aK(14)…a-NH2], the figures for the IC50 in assay [17], in assay [18] and in assay [21] were 0.3 nM, 5.7 nM and 833 nM, respectively.
